From paper doi:10.1101/2023.07.24.550339 come the findings set out here.

The assay addresses Rac1BD (MiniBAR70-208), recombinant (human) (UniProt O15063). Description: SEC-MALS.

“Rac1Q61L, recombinant (from UniProt P63000 1-192) (natural protein)”: the stoichiometry N (Rac1 per Rac1BD homodimer) came to 2.
